The values that follow are results of earlier work, collected in article PMC10019135.

Broadly, the Kd is the concentration at which binding is half-saturated.

In the data set the target is IL-2Rβ/γc heterodimer (Homo sapiens) (UniProt P14784).
Chain of UniProt P14784 (P14784 27-240, chain 1 of 2): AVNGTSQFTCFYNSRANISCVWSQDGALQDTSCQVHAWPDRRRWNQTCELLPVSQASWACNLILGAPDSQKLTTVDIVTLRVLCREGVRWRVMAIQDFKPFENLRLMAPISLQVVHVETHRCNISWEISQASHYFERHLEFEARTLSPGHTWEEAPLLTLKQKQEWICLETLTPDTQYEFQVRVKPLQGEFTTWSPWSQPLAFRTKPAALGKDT
Chain of UniProt P14784 (P31785 23-262, chain 2 of 2, further chain): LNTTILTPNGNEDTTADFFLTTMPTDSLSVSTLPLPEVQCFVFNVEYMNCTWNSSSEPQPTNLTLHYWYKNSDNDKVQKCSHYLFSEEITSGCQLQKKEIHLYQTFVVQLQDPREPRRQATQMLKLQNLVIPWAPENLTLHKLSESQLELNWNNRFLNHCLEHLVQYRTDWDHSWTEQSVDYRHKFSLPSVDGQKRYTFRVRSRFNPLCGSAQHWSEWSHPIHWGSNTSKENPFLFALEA

IL-2 (from UniProt P60568): the Kd is 1 nM.
